In publication PMC4575486, “GDF-5 can act as a context-dependent BMP-2 antagonist” (BMC Biology, 2015):
Like-named read-outs stand apart in the source and are kept apart here.

Legend:
[1] = molecular target: T1, extracellular domain of human BMPR-IA (human, UniProt P36894 24-152)
[2] = molecular target: T1, extracellular domain of human BMPR-IA; assay: SPR; quality control of the recombinant ligands, as previously described (ref. 17)
[3] = molecular target: T1, extracellular domain of human BMPR-IA; assay: cell-based or functional assay

T1 sequence (P36894 24-152): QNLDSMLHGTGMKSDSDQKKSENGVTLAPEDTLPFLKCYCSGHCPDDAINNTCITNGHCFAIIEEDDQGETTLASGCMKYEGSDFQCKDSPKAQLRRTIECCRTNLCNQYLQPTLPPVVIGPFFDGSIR

## GDF-5 R57A (growth and differentiation factor 5, variant R57A) (ligand)
[1]
  inhibition of ALP expression induced by 20 nM BMP-2 in C2C12 cells by increasing concentrations of GDF-5 R57A, IC50: 5 nM
[2]
  Kd: 1.6 nM

B1: human GDF-5 (growth and differentiation factor 5), wild type (ligand, UniProt P43026 382-501, looked up)
chain: APLATRQGKRPSKNLKARCSRKALHVNFKDMGWDDWIIAPLEYEAFHCEGLCEFPLRSHLEPTNHAVIQTLMNSMDPESTPPTCCVPTRLSPISILFIDSANNVVYKQYEDMVVESCGCR
notes: human growth and differentiation factor 5, recombinant from E. coli; Homodimer; also called wild-type GDF-5; GDF-5WT; source: E. coli, purified (as previously described)
[3]
  SMAD-1 phosphorylation in ATDC5 and C2C12 cells; concentration needed for phospho-SMAD levels comparable to BMP-2: ~10 fold
  bone formation in the rat orthotopic (calvaria) model; amount of protein needed for the same ossified surface area as BMP-2 or GDF-5 R57A: ~20 fold
  inhibition of ALP expression induced by 20 nM BMP-2 in C2C12 cells by increasing concentrations of wild-type GDF-5, IC50: 70 nM
[2]; both partners purified
  Kd: 20 nM
